This experiment has as its target PA heptamer (Bacillus anthracis, UniProt P13423 197-764). Description: BIAcore; PA heptamer immobilized on CM5 chip, IgG1 in solution.

Sequence of PA heptamer (P13423 197-764): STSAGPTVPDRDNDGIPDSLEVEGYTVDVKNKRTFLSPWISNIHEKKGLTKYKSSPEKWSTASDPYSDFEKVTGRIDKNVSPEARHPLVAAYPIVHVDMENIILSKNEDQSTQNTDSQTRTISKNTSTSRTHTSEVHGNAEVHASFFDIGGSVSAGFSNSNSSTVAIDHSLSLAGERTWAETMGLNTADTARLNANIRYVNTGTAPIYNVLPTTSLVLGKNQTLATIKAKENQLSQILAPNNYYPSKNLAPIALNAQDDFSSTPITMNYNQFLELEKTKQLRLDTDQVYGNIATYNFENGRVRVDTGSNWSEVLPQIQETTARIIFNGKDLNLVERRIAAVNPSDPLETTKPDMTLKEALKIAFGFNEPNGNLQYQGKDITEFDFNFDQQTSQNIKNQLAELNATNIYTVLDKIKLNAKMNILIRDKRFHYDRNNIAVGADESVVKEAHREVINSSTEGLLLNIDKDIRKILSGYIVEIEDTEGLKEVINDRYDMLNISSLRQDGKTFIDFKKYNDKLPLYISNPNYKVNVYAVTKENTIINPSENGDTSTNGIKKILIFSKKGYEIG

B1: PWD0283 (IgG1 format) (antibody, V domains shown)
VH: EVQLLESGGGLVQPGGSLRLSCAASGFTFSSYATSWVRQAPGKGLEWVSAISGSGGSTYYADSVKGRFTISRDNSKNTLYLQMNSLRAEDTAVYYCARVGGAIRFDSWGRGTLVTVSS
VL: SYELTQPPSASETPGQRVSISCSGGTSNIGSNTINWYQQVPGTAPKLLIYFNNRRPAGVPARFSASKSGTSASLTISGLQSEDEADYYCSAWDDSLSGVVFGGGTKLTVLG
With B1, the affinity, expressed as Kd, was 0.187 nM; the koff turned out to be 0.000426 s⁻¹; the kon is 2.28e+06 M⁻¹ s⁻¹.

The values above are taken from patent US7906119 (Human Genome Sciences, dated 2011).
